Results: publication PMC5427846 (Scientific Reports, 2017)

Molecular target: T1, SecY without pBpa insertion (E. coli, UniProt P0AGA2 1-443)
T1 sequence (looked up): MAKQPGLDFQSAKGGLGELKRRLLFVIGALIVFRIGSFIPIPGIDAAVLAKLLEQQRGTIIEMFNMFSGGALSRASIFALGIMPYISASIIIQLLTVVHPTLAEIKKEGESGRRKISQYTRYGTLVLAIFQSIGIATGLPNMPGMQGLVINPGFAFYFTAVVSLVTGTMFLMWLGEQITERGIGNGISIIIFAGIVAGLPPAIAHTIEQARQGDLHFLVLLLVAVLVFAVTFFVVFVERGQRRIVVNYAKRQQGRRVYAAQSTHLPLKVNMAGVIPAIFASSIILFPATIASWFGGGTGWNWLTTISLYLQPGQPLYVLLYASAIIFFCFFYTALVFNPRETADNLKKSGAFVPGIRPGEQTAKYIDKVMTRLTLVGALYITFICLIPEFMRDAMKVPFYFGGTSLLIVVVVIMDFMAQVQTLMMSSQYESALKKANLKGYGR
Test: cell-based or functional assay

B1: YidC (natural protein, UniProt P25714 1-548, looked up)
chain: MDSQRNLLVIALLFVSFMIWQAWEQDKNPQPQAQQTTQTTTTAAGSAADQGVPASGQGKLISVKTDVLDLTINTRGGDVEQALLPAYPKELNSTQPFQLLETSPQFIYQAQSGLTGRDGPDNPANGPRPLYNVEKDAYVLAEGQNELQVPMTYTDAAGNTFTKTFVLKRGDYAVNVNYNVQNAGEKPLEISSFGQLKQSITLPPHLDTGSSNFALHTFRGAAYSTPDEKYEKYKFDTIADNENLNISSKGGWVAMLQQYFATAWIPHNDGTNNFYTANLGNGIAAIGYKSQPVLVQPGQTGAMNSTLWVGPEIQDKMAAVAPHLDLTVDYGWLWFISQPLFKLLKWIHSFVGNWGFSIIIITFIVRGIMYPLTKAQYTSMAKMRMLQPKIQAMRERLGDDKQRISQEMMALYKAEKVNPLGGCFPLLIQMPIFLALYYMLMGSVELRQAPFALWIHDLSAQDPYYILPILMGVTMFFIQKMSPTTVTDPMQQKIMTFMPVIFTVFFLWFPSGLVLYYIVSNLVTIIQQQLIYRGLEKRGLHSREKKKS
- anion to cation permeability ratio r (PCl/PK) of the FtsQ-RNC-YidC-SecYEG complex: 5.1
